Drawing on publication PMC5772350, this text covers Activity (%) and XA (RU), SPR response to 100 nM CEA for one substance.

The target in experiment [1] is B5-GS3K (anti-CEA sdAb with C-terminal positively charged tail). Nature of the experiment: SPR.
In experiment [2] the target is B5-Rhiz (anti-CEA sdAb fused C-terminally to rhizavidin). Put plainly: SPR. A general note: SPR reads the build-up and loss of mass on a sensor chip optically.

As for “Carcinoembryonic antigen (CEA) (from UniProt P06731 35-685) (natural protein)”, the Activity (%) in experiment [1] came out at 14.3%. In experiment [2], this substance gave an Activity (%) of 5% and an XA (RU), SPR response to 100 nM CEA of 839 RU.
